Results on four substances are retold here after patent publication US10668186B2, “Quenched coating” (Original G B.V., priority 2014, dated 2020).

Where two headings read alike, the source gives them in different places. Primed or numbered codes have the meaning given here. Where no end group is shown, it is not given here. code X = (S)-5-azido-2-(Fmoc-amino)pentanoic acid (δ-azido-L-norvaline); Orn(N3) = [N-]=[N+]=NCCC[C@H](N)C(=O)O; IRDye800CW′ = not defined here; IRDyeQC‑1 = quencher label; IRDye800RS = dye label; Pol = MeO-PEG-alkyne

One assay relates to S. aureus. The experiment in a line: Coated catheter S. aureus challenge, near infrared fluorescence imaging. The format is cell-based. Conditions: for Coating response to S. aureus challenge: coated Foley silicone catheter, 2×10^6 CFU ml^−1 S. aureus, 4 hours, excitation 710 nm, emission 800 nm; for detection of S. aureus (in words): coated catheter, S. aureus challenge. The procedure:
The catheter used was a 14F silicone Foley Catheter which was provided in 6 mm lengths and having a diameter of 4.2 mm. An aqueous slurry of each polymer coating was prepared and each piece of catheter plunged into the slurry mixture. The coated catheters were stored at 20° C. in the dark for 15 minutes prior to repeating the dipping procedure. The process was repeated four times in total. After the final coating, the coated catheters were stored at 35° C. for 48 hours to facilitate drying of the coating. Each coated catheter and one none coated catheter as control, were incubated in the presence of 2×10^6 colony-forming units (CFU) ml^−1 of S. auereus for 4 hours. […] The results obtained from the IVIS Spectrum and IVIS Lumina II were analyzed with Living Image 4.2. (Caliper L S, Hopkinton Mass., USA). Optimal detection limits were set to the lowest signal at which positive signal was effortlessly discriminated from negative controls. Signal intensity was determined by drawing regions of interests (ROI's) and measuring average counts in these regions. The signal was corrected for background by subtracting the background signal from the signal of interest, referred to in the text as net counts. A strong near infrared signal was, attributed to the first fluorescent agent.

For assay [1], the target named is T1, Granzyme B, Human, Recombinant (Homo sapiens, UniProt P10144).
T1 construct: purchased MerckMillepore 368043; host or cells: E. coli
T1 sequence (P10144 21-247): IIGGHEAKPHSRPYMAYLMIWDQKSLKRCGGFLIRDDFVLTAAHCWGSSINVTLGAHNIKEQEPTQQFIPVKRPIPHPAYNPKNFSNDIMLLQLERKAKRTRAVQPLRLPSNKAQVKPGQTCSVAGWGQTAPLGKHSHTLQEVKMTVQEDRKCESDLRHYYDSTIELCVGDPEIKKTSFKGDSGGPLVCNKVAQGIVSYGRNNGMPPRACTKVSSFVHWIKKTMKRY
The experiment in a line: Digestion of peptide 1 in solution monitored by luminescence spectroscopy (Granzyme B). Conditions: presence of Granzyme B. It counts as biochemical. The source says: Human recombinant protease was obtained from MerckMillepore (368043 Granzyme B, Human, Recombinant, E. coli).

For the next assay, the target named is V8 protease (Staphylococcus aureus, UniProt P0C1U8). The note with it: surface bound, Odyssey CLX, exciting at 800 nm. As for the experimental part: The resulting solution (50 μL) was pipetted onto the glass slide, and the slide was kept in a humidified environment for 1H. The droplet was washed off by rinsing 3× with 1 mL DMSO:H2O 80/20; thereafter, the slide was placed in a washing solution of DMSO:H2O 80/20 and was gently agitated for 1 minute. The washing solution was rinsed off with water (5×1 mL) and the slide was dried by a flow of nitrogen.
Sequence of V8 protease (P0C1U8 69-336): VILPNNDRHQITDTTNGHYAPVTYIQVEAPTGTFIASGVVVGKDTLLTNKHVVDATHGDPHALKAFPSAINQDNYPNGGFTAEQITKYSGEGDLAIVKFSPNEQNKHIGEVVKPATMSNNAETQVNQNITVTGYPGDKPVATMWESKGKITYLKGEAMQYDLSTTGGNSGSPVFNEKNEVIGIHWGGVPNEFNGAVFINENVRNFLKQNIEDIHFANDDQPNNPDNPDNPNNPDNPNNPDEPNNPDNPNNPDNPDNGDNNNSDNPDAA
Li-Cor Odyssey CLX equipment was used on site at Westburg (Leusden, N L; Timo Kreike, Moniek Kors). All Odyssey CLX measurements were taken by exciting at 800 nm.

For assay [2], the target named is V8 protease (Endoproteinase Glu-C from Staphylococcus aureus V8) (Staphylococcus aureus, UniProt P0C1U8). Conditions: in solution, excitation 720 nm. The procedure: Bacterial protease was obtained from Sigma-Aldrich (Endoproteinase Glu-C from Staphylococcus aureus V8, P2922 SIGMA), also named ‘protease V8’ or ‘V8’ in this document.
Sequence of V8 protease (Endoproteinase Glu-C from Staphylococcus aureus V8) (P0C1U8 69-336): as above
The cleavage of peptide 1 in the presence of V8 protease and GranzymB protease was monitored in solution by luminescence spectroscopy. Photo-luminescence spectra were measured on a Perkin-Elmer Luminescence Spectrometer LS50 B. Spectra were recorded from 250 to 900 nm, using an excitation wavelength of 720 nm and applying a slit width of 15 nm.
The digestion in solution was performed in a glass vial. 100 μL of stock solution of peptide 1 (10 mg/mL) was diluted with 625 μL H2O and 250 μL 100 mM phosphate buffer solution (pH=7.8). A sample of 10 μL was taken at t=0. Then, 50 μL of V8 or Granzyme B protease stock solution (25 units, ±25 μg) was added, the mixture shaken and was kept at room temperature. […] At various time points (30 s, 2, 5, 10, 15, 20, 25, 30, 40, 50, 60, 90, 120, 150 and 180 min., and at 18H) a 10 μL incubate sample was taken and was diluted with 3 mL of water. The prepared diluted samples were measured by luminescence spectroscopy, so as to monitor the digestive cleavage of peptide 1. As blanks, cuvettes with water and the same amount of DMSO as the sample solution were used.

With “(IRDye800RS)-KG-(Pol)-X-LLEFRIVAK(IRDye800RS) ({IRDye800RS-Lys-Gly-Pol-code X}-LLEFRIVAK(IRDye800RS); also: MeO-PEG) [Example 5.3]”, in the assay with S. aureus, the “Coating response to S. aureus challenge” value is recorded as “+” and the “detection of S. aureus (in words)” value was “only a weak signal is detected”.

Turning to “Ac-(IRDye800CW)CG-(Pol)-X-LLEFRIVAK(IRDyeQC-1) ({Ac-Cys(IRDye800CW)-Gly-Pol-code X}-LLEFRIVAK(IRDyeQC‑1); also: MeO-PEG) [Example 5.4]”, in the assay on S. aureus, the “Coating response to S. aureus challenge” value is “++” and the “detection of S. aureus (in words)” value was “very good detection”.

For “Ac-X-[K(IRDye800RS)]-GLLEFRIVAK(IRDye800RS)-amide ({Ac-Orn(N3)-K(IRDye800RS)}-GLLEFRIVAK(IRDye800RS)-NH2) [Peptide 1]”, the “cleavage by Granzyme B” value in assay [1] was “not cut”. The background fluorescence in assay [1] (maintained throughout the experiment) is listed as 1 AU; in assay [2] (absence of V8 protease) it was “around 1 AU”. Also, the intensity entry is listed as “circa 6000 units” with V8 protease (before V8 protease) and 25000 units with V8 protease (in the presence of V8 protease). In addition, the fluorescence intensity in assay [2] (after 30 s of adding V8 protease) is recorded as 4 AU; in assay [2] (within 6 minutes of adding V8 protease), 6 AU.

For “G-(Pol)-X-LLEFRIVAC-IRDye800CW (LLEFRIVAC-{IRDye800CW′}; not fully specified (residue 9, N-terminus); also: MeO-PEG) [Example 5.2, comparative, no non-fluorescent agent, reference compound]”, in the assay with S. aureus, the “Coating response to S. aureus challenge” value is given as “−” and the “detection of S. aureus (in words)” value is recorded as “only a small change in intensity in emitted light is detected”.
